According to patent publication US20130209454A1 (CALIFORNIA INSTITUTE OF TECHNOLOGY, published 2013):
Read-outs that look alike come from different tables or passages of the source.

What was measured:
Assay in all cases: cell-based or functional assay
[1] = molecular target: HIV-1 Env of strain Du156.12 (HIV-1)
[2] = molecular target: HIV-1 Env of strain ZM249M.PL1 (HIV-1)
[3] = molecular target: HIV-1 Env of strain ZM135M.PL10a (HIV-1)
[4] = molecular target: HIV-1 Env of strain ZM53M.PB12 (HIV-1)
[5] = molecular target: HIV-1 Env of strain ZM214M.PL15 (HIV-1)
[6] = molecular target: HIV-1 Env of strain ZM197M.PB7 (HIV-1)
[7] = molecular target: HIV-1 Env of strain ZM109F.PB4 (HIV-1)
[8] = molecular target: HIV-1 Env of strain CAP45.2.00.G3 (HIV-1)
[9] = molecular target: HIV-1 Env of strain CAP210.2.00.E8 (HIV-1)
[10] = molecular target: HIV-1 Env of strain Du172.17 (HIV-1)
[11] = molecular target: HIV-1 Env of strain TRO.11 (HIV-1)
[12] = molecular target: HIV-1 Env of strain AC10.0.29 (HIV-1)
[13] = molecular target: HIV-1 Env of strain Q842.d12 (HIV-1)
[14] = molecular target: HIV-1 Env of strain C3347.c11 (HIV-1)
[15] = molecular target: HIV-1 Env of strain 6540.v4.cl (HIV-1)
[16] = molecular target: HIV-1 Env of strain Du422.1 (HIV-1)
[17] = molecular target: HIV-1 Env of strain 3817.v2.c59 (HIV-1)
[18] = molecular target: HIV-1 Env of strain 89-F1_2_25 (HIV-1)
[19] = molecular target: HIV-1 Env of strain 620345.c01 (HIV-1)
[20] = molecular target: HIV-1 Env of strain T278-50 (HIV-1)
[21] = molecular target: HIV-1 Env of strain 211-9 (HIV-1)
[22] = molecular target: HIV-1 Env of strain 3016.v5.c45 (HIV-1)
[23] = molecular target: HIV-1 Env of strain Du172.17 (HIV-1); remark: listed apart in the source
[24] = molecular target: HIV-1 Env of strain CNE20 (HIV-1)
[25] = molecular target: HIV-1 Env of strain CNE21 (HIV-1)
[26] = molecular target: HIV-1 Env of strain HIV-16845-2.22 (HIV-1)
[27] = molecular target: HIV-1 Env of strain C1080.c03 (HIV-1)
[28] = molecular target: HIV-1 Env of strain THRO4156.18 (HIV-1)
[29] = molecular target: HIV-1 Env of strain 3103.v3.c10 (HIV-1)
[30] = molecular target: HIV-1 Env of strain 231966.c02 (HIV-1)
[31] = molecular target: HIV-1 Env of strain T251-18 (HIV-1)
[32] = molecular target: HIV-1 Env of strain Ce1176_A3 (HIV-1)
[33] = molecular target: HIV-1 Env of strain T257-31 (HIV-1)
[34] = molecular target: HIV-1 Env of strain Ce0393_C3 (HIV-1)
[35] = molecular target: HIV-1 Env of strain CNE30 (HIV-1)
[36] = molecular target: HIV-1 Env of strain ZM197M.PB7 (HIV-1); remark: listed apart in the source
[37] = molecular target: HIV-1 Env of strain 1054_07_TC4_1499 (HIV-1)
[38] = molecular target: HIV-1 Env of strain Ce2010_F5 (HIV-1)
[39] = molecular target: HIV-1 Env of strain P1981_C5_3 (HIV-1)
[40] = molecular target: HIV-1 Env of strain P0402_c2_11 (HIV-1)
[41] = molecular target: HIV-1 Env of strain 62357_14_D3_4589 (HIV-1)
[42] = molecular target: HIV-1 Env of strain 231965.c01 (HIV-1)
[43] = molecular target: HIV-1 Env of strain TROJO4551.58 (HIV-1)

B1: NIH45-46 IgG (antibody, V domains shown)
VH: QVRLSQSGGQMKKPGESMRLSCRASGYEFLNCPINWIRLAPGRRPEWMGWLKPRGGAVNYARKFQGRVTMTRDVYSDTAFLELRSLTSDDTAVYFCTRGKYCTARDYYNWDFEHWGRGAPVTVSS
VL: EIVLTQSPATLSLSPGETAIISCRTSQSGSLAWYQQRPGQAPRLVIYSGSTRAAGIPDRFSGSRWGADYNLSISNLESGDFGVYYCQQYEFFGQGTKVQVDI
Question: For B1, which “neutralization IC50” value [1] is on record?
Answer: 0.01 µg/mL

Question: And the “neutralization IC50” value [2]?
Answer: 0.02 µg/mL

Question: And the “neutralization IC50” value [3]?
Answer: 0.36 µg/mL

Question: And the “neutralization IC50” value [4]?
Answer: 0.65 µg/mL

Question: What about the “neutralization IC50” value [5] of the same binder?
Answer: 0.05 µg/mL

Question: And the “neutralization IC50” value [6]?
Answer: 0.14 µg/mL

Question: What about the “neutralization IC50” value [7] of the same binder?
Answer: 0.22 µg/mL

Question: What about the “neutralization IC50” value [8] of the same binder?
Answer: > 50 µg/mL

Question: What about the “neutralization IC50” value [9] of the same binder?
Answer: > 50 µg/mL

Question: What about the “neutralization IC50” value [10] of the same binder?
Answer: > 50 µg/mL

Question: And the “neutralization IC50” value [11]?
Answer: 1 µg/mL

Question: And the “neutralization IC50” value [12]?
Answer: 0.9 µg/mL

Question: And the “neutralization IC50” value [13]?
Answer: 0.031 µg/mL

Question: And the “neutralization IC50” value [14]?
Answer: 0.029 µg/mL

Question: And the “neutralization IC50” value [15]?
Answer: > 50 µg/mL

Question: What about the “neutralization IC50” value [16] of the same binder?
Answer: > 50 µg/mL

Question: And the “neutralization IC50” value [17]?
Answer: > 50 µg/mL

Question: And the “neutralization IC50” value [18]?
Answer: > 50 µg/mL

Question: What about the “neutralization IC50” value [19] of the same binder?
Answer: > 50 µg/mL

Question: And the “neutralization IC50” value [20]?
Answer: > 50 µg/mL

Question: And the “neutralization IC50” value [21]?
Answer: > 50 µg/mL

Question: What about the “neutralization IC50” value [22] of the same binder?
Answer: > 50 µg/mL

Question: And the “neutralization IC50” value [23]?
Answer: > 50 µg/mL

Question: What about the “neutralization IC50” value [24] of the same binder?
Answer: 7.83 µg/mL

Question: And the “neutralization IC50” value [25]?
Answer: 6.01 µg/mL

Question: And the “neutralization IC50” value [26]?
Answer: 5 µg/mL

Question: And the “neutralization IC50” value [27]?
Answer: 2.48 µg/mL

Question: What about the “neutralization IC50” value [28] of the same binder?
Answer: 1.91 µg/mL

Question: And the “neutralization IC50” value [29]?
Answer: 1.77 µg/mL

Question: What about the “neutralization IC50” value [30] of the same binder?
Answer: 1.64 µg/mL

Question: What about the “neutralization IC50” value [31] of the same binder?
Answer: 1.35 µg/mL

Question: What about the “neutralization IC50” value [32] of the same binder?
Answer: 0.93 µg/mL

Question: What about the “neutralization IC50” value [33] of the same binder?
Answer: 0.49 µg/mL

Question: And the “neutralization IC50” value [34]?
Answer: 0.334 µg/mL

Question: What about the “neutralization IC50” value [35] of the same binder?
Answer: 0.309 µg/mL

Question: What about the “neutralization IC50” value [36] of the same binder?
Answer: 0.15 µg/mL

Question: What about the “neutralization IC50” value [37] of the same binder?
Answer: 0.113 µg/mL

Question: What about the “neutralization IC50” value [38] of the same binder?
Answer: 0.101 µg/mL

Question: What about the “neutralization IC50” value [39] of the same binder?
Answer: 0.08 µg/mL

Question: And the “neutralization IC50” value [40]?
Answer: 0.073 µg/mL

Question: What about the “neutralization IC50” value [41] of the same binder?
Answer: 0.06 µg/mL

Question: And the “neutralization IC50” value [42]?
Answer: 0.051 µg/mL

Question: And the “neutralization IC50” value [43]?
Answer: 0.04 µg/mL
